Molecular target: T1, 人源FSTL1蛋白 (卵泡抑素样蛋白1, Follistatin-like 1) (human, UniProt Q12841 21-308, limits assumed)
T1 construct: Soluble protein, used as analyte in SPR and as labelled ligand in MST; The construct is not described; also called 抗原; 靶点蛋白
T1 sequence (looked up): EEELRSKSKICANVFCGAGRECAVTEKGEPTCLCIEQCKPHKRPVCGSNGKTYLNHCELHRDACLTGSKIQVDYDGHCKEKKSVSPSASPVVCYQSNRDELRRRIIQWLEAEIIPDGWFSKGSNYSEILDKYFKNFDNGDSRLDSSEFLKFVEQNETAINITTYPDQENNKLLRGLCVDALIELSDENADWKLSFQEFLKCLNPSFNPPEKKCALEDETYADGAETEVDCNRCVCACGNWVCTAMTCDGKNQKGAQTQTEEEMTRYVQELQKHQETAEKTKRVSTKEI
Test: SPR (Biacore T200), antibody amine-coupled on CM5 chip, FSTL1 protein injected

Kd: 6.17 nM
B1: 人源FSTL1中和性抗体JK07 (全长IgG) (antibody, V domains shown)
VH: QVQLVQSGAEVKKPGSTVKVSCKSSEGTFNNYGISWIRQAPGQGLEWMGGVIPIIGIGNFPQKFQDRVTMTADKFTGTAYMELSSLRSEDTAVYYCARHLGGRNSYDVFDIWGQGTLVTVSS
VL: EIVLTQSPLSLPVTLGQTASISCRSSHSLVQSNGNTYLTWFQQRPGQSPRRLIYKVSSRDSGVPDRFSGSGSGTDFTLKISRVEAEDVGVYYCMQARQTPWTFGQGTKVEIKR
notes: also called JK07抗体

Source: patent publication CN113121684A (TIANJIN JIKUN PHARMACEUTICAL TECH CO LTD, dated 2021)
